Patent US10919966B2, “Antibody to programmed death-ligand 1 (PD-L1) and use thereof” (Y-BIOLOGICS INC., dated 2021)
Values belong to the binder of their own block, whether it stands above or below them.

Columns and labels:
PD-L1-hFc [1] = molecular target: T1, PD-L1-hFc (human, UniProt Q9NZQ7); assay: SPR, ProteOn XPR36, PD-L1-hFc immobilised on GLC chip, antibody 30 nM to 0.123 nM
Experimental: (§1) A ProteOn XPR36 (BioRad) instrument was used. The GLC sensor chip (BioRad) was mounted on the instrument and washed with PBST buffer, and the carboxymethyldextran surface was activated with an EDC/sulfo-NHS mixed solution. PD-L1-hFc dissolved at a concentration of 5 ug/ml in a 10 mM sodium acetate buffer solution (pH 5.0) was injected and immobilized on the GLC sensor chip.
In order to deactivate the activated carboxyl groups that remain unreacted with the PD-L1 protein, 1 M ethanolamine was flowed and 10 mM glycine (pH 2.0) was injected in order to wash proteins that remain unbound to the sensor chip.

cynomolgus PD-L1 protein = cynomolgus PD-L1 protein (cynomolgus, UniProt G7PSE7); assay: SPR, ProteOn XPR36, cynomolgus PD-L1 protein (construct not described)
PD-L1-hFc [2] = molecular target: T1, PD-L1-hFc; assay: SPR, ProteOn XPR36, human PD-L1 (PD-L1-hFc immobilised)
Experimental: as §1
In order to deactivate the activated carboxyl groups that remain unreacted with the PD-L1 protein, 1 M ethanolamine was flowed and 10 mM glycine (pH 2.0) was injected in order to wash proteins that remain unbound to the sensor chip. Then, sensogram data were collected during binding and dissociation over time while allowing the antibodies to flow at a flow rate of 30 µL/min (30 nM to 0.123 nM) for 10 min using PBST buffer.

T1 sequence (Q9NZQ7 other isoform, or with tags, fused parts or gaps): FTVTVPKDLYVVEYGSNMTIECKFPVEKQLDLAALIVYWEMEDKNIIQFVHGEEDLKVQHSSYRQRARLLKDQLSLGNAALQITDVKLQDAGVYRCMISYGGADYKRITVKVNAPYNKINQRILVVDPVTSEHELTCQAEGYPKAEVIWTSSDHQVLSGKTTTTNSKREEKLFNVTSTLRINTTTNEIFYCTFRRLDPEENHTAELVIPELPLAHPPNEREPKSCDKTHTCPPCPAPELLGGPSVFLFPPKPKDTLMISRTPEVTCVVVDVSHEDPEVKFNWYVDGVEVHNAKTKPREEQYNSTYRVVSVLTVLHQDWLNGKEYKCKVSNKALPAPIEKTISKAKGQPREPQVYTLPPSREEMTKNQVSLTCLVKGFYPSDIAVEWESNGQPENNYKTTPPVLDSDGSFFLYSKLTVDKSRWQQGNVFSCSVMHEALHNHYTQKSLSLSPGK

Kd (PD-L1-hFc [1]): 45 pM
B1: PDL1-16E12 (antibody, V domains shown)
VH: QMQLVQSGAEVKKPGSSVKVSCKASGGTFSSYAISWVRQAPGQGLEWMGRIIPILGIANYAQKFQGRVTITADKSTSTAYMELSSLRSEDTAVYYCAKPRDGYNLVAFDIWGQGTMVTVSS
VL: QLVLTQPPSVSGAPGQTVTISCTGSSSNIGAGYDVHWYQQLPGTAPKLLIYGNNNRPSGVPDRFSGSKSGALASLAITGLQAEDGADYHCQSYDNSLSAHAVFGTGTKVTVL

Kd (cynomolgus PD-L1 protein): 1 pM
koff (cynomolgus PD-L1 protein): 1e-07 s⁻¹
Kd (PD-L1-hFc [2]): 1 pM
koff (PD-L1-hFc [2]): 1e-07 s⁻¹
kon (PD-L1-hFc [2]): 310000 M⁻¹ s⁻¹
B2: PDL1-16E12 (LS/4F5) (antibody, V domains shown)
VH: B1 VH
VL: QLVLTQPPSVSGAPGQRVTISCTGSSSNIGAGYDVHWYQQLPGAAPKLLIYGDINRPSGVPDRFSGSKSGISASLAITGLQAEDEADYYCQSYDSSLSGGVFGGGTKLTVL
